Laboratory results reported in article PMC9652086.

Target: h4#147D, humanized IgG4-formatted anti-CD147 antibody (IgG4Pro, heavy chain S228P) (human)
Test: SPR; Biacore T200; purified h4#147D captured on the sensor chip with a human antibody capture kit, recombinant human or monkey CD147 injected; 1:1 fitting model

Sequence of h4#147D, humanized IgG4-formatted anti-CD147 antibody (IgG4Pro, heavy chain S228P) (human) (heavy, as listed by the source, chain 1 of 2): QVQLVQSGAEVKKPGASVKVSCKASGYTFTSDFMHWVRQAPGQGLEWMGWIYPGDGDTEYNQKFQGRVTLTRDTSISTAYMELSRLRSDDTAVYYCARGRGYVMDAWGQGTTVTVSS
Sequence of h4#147D, humanized IgG4-formatted anti-CD147 antibody (IgG4Pro, heavy chain S228P) (human) (light, as listed by the source, chain 2 of 2): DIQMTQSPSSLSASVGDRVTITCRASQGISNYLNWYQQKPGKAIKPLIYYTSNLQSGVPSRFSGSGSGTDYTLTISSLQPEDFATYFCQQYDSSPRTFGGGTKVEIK

Substance: recombinant monkey CD147 protein (natural protein)
- Kd: 5.8 nM
